Square brackets hold non-standard residues; d marks the D form. Ends that are not written are not given here. pS = N[C@@H](COP(=O)(O)O)C(=O)O
B1: fluorescently labeled phosphopeptide VNKpSYFND-fluorescein (peptide)
peptide: VNK[pS]YFND-fluorescein

Columns and labels:
[1] = target: B1; assay: fluorescence polarisation
[2] = target: BRCA1 BRCT domains, wild type (residues 1646-1863) (UniProt P38398 1646-1863); assay: fluorescence polarisation

fold reduction in affinity against wild type [1] [fold] | Binder | further results
≤ 1.5 | BRCA1 BRCT A1843P (domain or fragment, UniProt P38398 1646-1863, looked up) VNKRMSMVVSGLTPEEFMLVYKFARKHHITLTNLITEETTHVVMKTDAEFVCERTLKYFLGIAGGKWVVSYFWVTQSIKERKMLNEHDFEVRGDVVNGRNHQGPKRARESQDRKIFRGLEICCYGPFTNMPTDQLEWMVQLCGASVVKELSSFTLGTGVHPIVVVQPDAWTEDNGFHAIGQMCEAPVVTREWVLDSVPLYQCQELDTYLIPQIPHSHY | –
~1.4 | BRCA1 BRCT R1751Q (domain or fragment, UniProt P38398 1646-1863, looked up) VNKRMSMVVSGLTPEEFMLVYKFARKHHITLTNLITEETTHVVMKTDAEFVCERTLKYFLGIAGGKWVVSYFWVTQSIKERKMLNEHDFEVRGDVVNGRNHQGPKQARESQDRKIFRGLEICCYGPFTNMPTDQLEWMVQLCGASVVKELSSFTLGTGVHPIVVVQPDAWTEDNGFHAIGQMCEAPVVTREWVLDSVALYQCQELDTYLIPQIPHSHY | –
~1.4 | BRCA1 BRCT T1773S (domain or fragment, UniProt P38398 1646-1863, looked up) VNKRMSMVVSGLTPEEFMLVYKFARKHHITLTNLITEETTHVVMKTDAEFVCERTLKYFLGIAGGKWVVSYFWVTQSIKERKMLNEHDFEVRGDVVNGRNHQGPKRARESQDRKIFRGLEICCYGPFSNMPTDQLEWMVQLCGASVVKELSSFTLGTGVHPIVVVQPDAWTEDNGFHAIGQMCEAPVVTREWVLDSVALYQCQELDTYLIPQIPHSHY | –
≤ 1.5 | BRCA1 BRCT M1783T (domain or fragment, UniProt P38398 1646-1863, looked up) VNKRMSMVVSGLTPEEFMLVYKFARKHHITLTNLITEETTHVVMKTDAEFVCERTLKYFLGIAGGKWVVSYFWVTQSIKERKMLNEHDFEVRGDVVNGRNHQGPKRARESQDRKIFRGLEICCYGPFTNMPTDQLEWTVQLCGASVVKELSSFTLGTGVHPIVVVQPDAWTEDNGFHAIGQMCEAPVVTREWVLDSVALYQCQELDTYLIPQIPHSHY | –
~1.4 | BRCA1 BRCT G1706A (domain or fragment, UniProt P38398 1646-1863, looked up) VNKRMSMVVSGLTPEEFMLVYKFARKHHITLTNLITEETTHVVMKTDAEFVCERTLKYFLAIAGGKWVVSYFWVTQSIKERKMLNEHDFEVRGDVVNGRNHQGPKRARESQDRKIFRGLEICCYGPFTNMPTDQLEWMVQLCGASVVKELSSFTLGTGVHPIVVVQPDAWTEDNGFHAIGQMCEAPVVTREWVLDSVALYQCQELDTYLIPQIPHSHY | –
~100 | BRCA1 BRCT R1699Q (domain or fragment, UniProt P38398 1646-1863, looked up) VNKRMSMVVSGLTPEEFMLVYKFARKHHITLTNLITEETTHVVMKTDAEFVCEQTLKYFLGIAGGKWVVSYFWVTQSIKERKMLNEHDFEVRGDVVNGRNHQGPKRARESQDRKIFRGLEICCYGPFTNMPTDQLEWMVQLCGASVVKELSSFTLGTGVHPIVVVQPDAWTEDNGFHAIGQMCEAPVVTREWVLDSVALYQCQELDTYLIPQIPHSHY | –
– | B1 | Kd [2]: 112 ± 6 nM
~100 | BRCA1 BRCT R1699L (domain or fragment, UniProt P38398 1646-1863, looked up) VNKRMSMVVSGLTPEEFMLVYKFARKHHITLTNLITEETTHVVMKTDAEFVCELTLKYFLGIAGGKWVVSYFWVTQSIKERKMLNEHDFEVRGDVVNGRNHQGPKRARESQDRKIFRGLEICCYGPFTNMPTDQLEWMVQLCGASVVKELSSFTLGTGVHPIVVVQPDAWTEDNGFHAIGQMCEAPVVTREWVLDSVALYQCQELDTYLIPQIPHSHY | –
~5 | BRCA1 BRCT V1736A (domain or fragment, UniProt P38398 1646-1863, looked up) VNKRMSMVVSGLTPEEFMLVYKFARKHHITLTNLITEETTHVVMKTDAEFVCERTLKYFLGIAGGKWVVSYFWVTQSIKERKMLNEHDFEARGDVVNGRNHQGPKRARESQDRKIFRGLEICCYGPFTNMPTDQLEWMVQLCGASVVKELSSFTLGTGVHPIVVVQPDAWTEDNGFHAIGQMCEAPVVTREWVLDSVALYQCQELDTYLIPQIPHSHY | –
≤ 1.5 | BRCA1 BRCT V1808A (domain or fragment, UniProt P38398 1646-1863, looked up) VNKRMSMVVSGLTPEEFMLVYKFARKHHITLTNLITEETTHVVMKTDAEFVCERTLKYFLGIAGGKWVVSYFWVTQSIKERKMLNEHDFEVRGDVVNGRNHQGPKRARESQDRKIFRGLEICCYGPFTNMPTDQLEWMVQLCGASVVKELSSFTLGTGVHPIAVVQPDAWTEDNGFHAIGQMCEAPVVTREWVLDSVALYQCQELDTYLIPQIPHSHY | –
~1.4 | BRCA1 BRCT D1692N (domain or fragment, UniProt P38398 1646-1863, looked up) VNKRMSMVVSGLTPEEFMLVYKFARKHHITLTNLITEETTHVVMKTNAEFVCERTLKYFLGIAGGKWVVSYFWVTQSIKERKMLNEHDFEVRGDVVNGRNHQGPKRARESQDRKIFRGLEICCYGPFTNMPTDQLEWMVQLCGASVVKELSSFTLGTGVHPIVVVQPDAWTEDNGFHAIGQMCEAPVVTREWVLDSVALYQCQELDTYLIPQIPHSHY | –
~1.4 | BRCA1 BRCT L1664P (domain or fragment, UniProt P38398 1646-1863, looked up) VNKRMSMVVSGLTPEEFMPVYKFARKHHITLTNLITEETTHVVMKTDAEFVCERTLKYFLGIAGGKWVVSYFWVTQSIKERKMLNEHDFEVRGDVVNGRNHQGPKRARESQDRKIFRGLEICCYGPFTNMPTDQLEWMVQLCGASVVKELSSFTLGTGVHPIVVVQPDAWTEDNGFHAIGQMCEAPVVTREWVLDSVALYQCQELDTYLIPQIPHSHY | –
~300 | BRCA1 BRCT R1699W (domain or fragment, UniProt P38398 1646-1863, looked up) VNKRMSMVVSGLTPEEFMLVYKFARKHHITLTNLITEETTHVVMKTDAEFVCEWTLKYFLGIAGGKWVVSYFWVTQSIKERKMLNEHDFEVRGDVVNGRNHQGPKRARESQDRKIFRGLEICCYGPFTNMPTDQLEWMVQLCGASVVKELSSFTLGTGVHPIVVVQPDAWTEDNGFHAIGQMCEAPVVTREWVLDSVALYQCQELDTYLIPQIPHSHY | –
– | BRCA1 BRCT D1778N (domain or fragment, UniProt P38398 1646-1863, looked up) VNKRMSMVVSGLTPEEFMLVYKFARKHHITLTNLITEETTHVVMKTDAEFVCERTLKYFLGIAGGKWVVSYFWVTQSIKERKMLNEHDFEVRGDVVNGRNHQGPKRARESQDRKIFRGLEICCYGPFTNMPTNQLEWMVQLCGASVVKELSSFTLGTGVHPIVVVQPDAWTEDNGFHAIGQMCEAPVVTREWVLDSVALYQCQELDTYLIPQIPHSHY | fold increase in affinity against wild type [1]: ~1.5 fold
~1.4 | BRCA1 BRCT M1652I (domain or fragment, UniProt P38398 1646-1863, looked up) VNKRMSIVVSGLTPEEFMLVYKFARKHHITLTNLITEETTHVVMKTDAEFVCERTLKYFLGIAGGKWVVSYFWVTQSIKERKMLNEHDFEVRGDVVNGRNHQGPKRARESQDRKIFRGLEICCYGPFTNMPTDQLEWMVQLCGASVVKELSSFTLGTGVHPIVVVQPDAWTEDNGFHAIGQMCEAPVVTREWVLDSVALYQCQELDTYLIPQIPHSHY | –
~1.4 | BRCA1 BRCT V1665M (domain or fragment, UniProt P38398 1646-1863, looked up) VNKRMSMVVSGLTPEEFMLMYKFARKHHITLTNLITEETTHVVMKTDAEFVCERTLKYFLGIAGGKWVVSYFWVTQSIKERKMLNEHDFEVRGDVVNGRNHQGPKRARESQDRKIFRGLEICCYGPFTNMPTDQLEWMVQLCGASVVKELSSFTLGTGVHPIVVVQPDAWTEDNGFHAIGQMCEAPVVTREWVLDSVALYQCQELDTYLIPQIPHSHY | –
≤ 1.5 | BRCA1 BRCT G1788D (domain or fragment, UniProt P38398 1646-1863, looked up) VNKRMSMVVSGLTPEEFMLVYKFARKHHITLTNLITEETTHVVMKTDAEFVCERTLKYFLGIAGGKWVVSYFWVTQSIKERKMLNEHDFEVRGDVVNGRNHQGPKRARESQDRKIFRGLEICCYGPFTNMPTDQLEWMVQLCDASVVKELSSFTLGTGVHPIVVVQPDAWTEDNGFHAIGQMCEAPVVTREWVLDSVALYQCQELDTYLIPQIPHSHY | –
~1.4 | BRCA1 BRCT G1788V (domain or fragment, UniProt P38398 1646-1863, looked up) VNKRMSMVVSGLTPEEFMLVYKFARKHHITLTNLITEETTHVVMKTDAEFVCERTLKYFLGIAGGKWVVSYFWVTQSIKERKMLNEHDFEVRGDVVNGRNHQGPKRARESQDRKIFRGLEICCYGPFTNMPTDQLEWMVQLCVASVVKELSSFTLGTGVHPIVVVQPDAWTEDNGFHAIGQMCEAPVVTREWVLDSVALYQCQELDTYLIPQIPHSHY | –
~1.4 | BRCA1 BRCT M1775R (domain or fragment, UniProt P38398 1646-1863, looked up) VNKRMSMVVSGLTPEEFMLVYKFARKHHITLTNLITEETTHVVMKTDAEFVCERTLKYFLGIAGGKWVVSYFWVTQSIKERKMLNEHDFEVRGDVVNGRNHQGPKRARESQDRKIFRGLEICCYGPFTNRPTDQLEWMVQLCGASVVKELSSFTLGTGVHPIVVVQPDAWTEDNGFHAIGQMCEAPVVTREWVLDSVALYQCQELDTYLIPQIPHSHY | –

Source: PMC2888420 (The Journal of Biological Chemistry, 2010)
